For one molecule, Fold diff results are on record in patent publication US20220332804A1 (CSL INNOVATION, published 2022).

What all share (assay): SPR; KD relative to WT C2;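 note: biacore SPR at 37 °C, anti-C2 mAbs captured on an anti-human IgG chip, alanine or serine C2 surface mutants tested, KD from 1:1 fit compared with wild-type C2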
(In general: In SPR one partner is held on a chip, and binding of the other changes the refractive index at the surface.)

For experiment [1], the target named is T1, human C2 D269A (human, UniProt P06681 21-752).
T1 sequence: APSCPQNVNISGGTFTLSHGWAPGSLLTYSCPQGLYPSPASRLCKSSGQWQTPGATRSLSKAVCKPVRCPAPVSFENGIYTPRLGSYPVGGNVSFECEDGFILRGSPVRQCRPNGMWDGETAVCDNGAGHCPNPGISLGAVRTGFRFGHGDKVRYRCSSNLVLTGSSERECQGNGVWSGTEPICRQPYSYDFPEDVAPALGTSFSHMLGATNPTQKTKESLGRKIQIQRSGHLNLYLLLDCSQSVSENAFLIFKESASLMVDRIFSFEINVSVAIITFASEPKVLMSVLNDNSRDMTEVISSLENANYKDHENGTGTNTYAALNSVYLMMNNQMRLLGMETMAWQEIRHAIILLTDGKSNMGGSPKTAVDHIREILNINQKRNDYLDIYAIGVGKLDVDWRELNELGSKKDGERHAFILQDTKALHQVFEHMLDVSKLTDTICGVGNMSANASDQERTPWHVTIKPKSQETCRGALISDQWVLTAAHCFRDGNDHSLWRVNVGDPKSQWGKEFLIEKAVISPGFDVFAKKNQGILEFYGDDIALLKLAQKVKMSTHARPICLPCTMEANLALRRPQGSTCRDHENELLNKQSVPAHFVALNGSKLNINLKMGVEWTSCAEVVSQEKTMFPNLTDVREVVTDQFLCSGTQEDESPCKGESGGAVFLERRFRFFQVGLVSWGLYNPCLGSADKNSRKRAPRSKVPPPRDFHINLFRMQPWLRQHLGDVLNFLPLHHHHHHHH

In experiment [2] the target is T2, human C2 E324A (human, UniProt P06681 21-752).
T2 sequence: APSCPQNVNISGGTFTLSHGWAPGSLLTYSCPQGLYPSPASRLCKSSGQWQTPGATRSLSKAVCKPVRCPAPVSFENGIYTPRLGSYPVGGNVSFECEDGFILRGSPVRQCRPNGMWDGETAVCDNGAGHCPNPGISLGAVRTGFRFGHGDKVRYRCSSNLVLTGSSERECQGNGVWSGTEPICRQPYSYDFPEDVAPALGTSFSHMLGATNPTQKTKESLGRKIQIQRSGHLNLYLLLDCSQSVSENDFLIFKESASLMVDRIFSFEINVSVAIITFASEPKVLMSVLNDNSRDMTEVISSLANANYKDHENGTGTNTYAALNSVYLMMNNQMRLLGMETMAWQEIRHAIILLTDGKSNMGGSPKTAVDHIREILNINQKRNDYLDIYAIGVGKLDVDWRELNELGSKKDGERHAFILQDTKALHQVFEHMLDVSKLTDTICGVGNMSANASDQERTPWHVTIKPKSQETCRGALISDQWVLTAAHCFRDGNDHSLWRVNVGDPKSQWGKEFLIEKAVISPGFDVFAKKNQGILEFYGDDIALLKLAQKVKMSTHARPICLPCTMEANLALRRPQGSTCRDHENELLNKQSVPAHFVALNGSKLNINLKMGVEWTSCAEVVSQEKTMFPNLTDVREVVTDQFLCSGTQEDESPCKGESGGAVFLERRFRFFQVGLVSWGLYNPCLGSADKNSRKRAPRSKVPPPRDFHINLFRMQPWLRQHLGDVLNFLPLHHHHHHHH

Experiment [3] concerns the target T3, human C2 M316A (human, UniProt P06681 21-752).
T3 sequence: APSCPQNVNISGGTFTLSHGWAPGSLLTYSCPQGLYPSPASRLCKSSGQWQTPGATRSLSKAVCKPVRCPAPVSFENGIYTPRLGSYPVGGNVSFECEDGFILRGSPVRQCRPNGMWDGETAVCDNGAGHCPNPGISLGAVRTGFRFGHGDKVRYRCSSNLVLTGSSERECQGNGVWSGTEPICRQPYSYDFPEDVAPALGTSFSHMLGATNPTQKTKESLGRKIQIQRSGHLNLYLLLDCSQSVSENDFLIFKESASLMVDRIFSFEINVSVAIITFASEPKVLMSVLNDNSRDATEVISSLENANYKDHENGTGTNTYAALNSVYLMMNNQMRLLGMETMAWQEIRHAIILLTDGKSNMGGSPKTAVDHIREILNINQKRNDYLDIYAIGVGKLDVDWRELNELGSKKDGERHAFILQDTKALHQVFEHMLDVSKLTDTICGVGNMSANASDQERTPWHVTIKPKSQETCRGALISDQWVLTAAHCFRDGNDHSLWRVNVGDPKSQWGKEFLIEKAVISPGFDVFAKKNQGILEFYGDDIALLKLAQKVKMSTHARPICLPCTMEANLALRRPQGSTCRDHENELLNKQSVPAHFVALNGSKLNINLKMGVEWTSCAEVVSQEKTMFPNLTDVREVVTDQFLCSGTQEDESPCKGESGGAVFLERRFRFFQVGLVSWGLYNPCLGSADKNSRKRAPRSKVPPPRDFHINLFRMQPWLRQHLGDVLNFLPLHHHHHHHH

The target in experiment [4] is T4, human C2 N268A (human, UniProt P06681 21-752).
T4 sequence: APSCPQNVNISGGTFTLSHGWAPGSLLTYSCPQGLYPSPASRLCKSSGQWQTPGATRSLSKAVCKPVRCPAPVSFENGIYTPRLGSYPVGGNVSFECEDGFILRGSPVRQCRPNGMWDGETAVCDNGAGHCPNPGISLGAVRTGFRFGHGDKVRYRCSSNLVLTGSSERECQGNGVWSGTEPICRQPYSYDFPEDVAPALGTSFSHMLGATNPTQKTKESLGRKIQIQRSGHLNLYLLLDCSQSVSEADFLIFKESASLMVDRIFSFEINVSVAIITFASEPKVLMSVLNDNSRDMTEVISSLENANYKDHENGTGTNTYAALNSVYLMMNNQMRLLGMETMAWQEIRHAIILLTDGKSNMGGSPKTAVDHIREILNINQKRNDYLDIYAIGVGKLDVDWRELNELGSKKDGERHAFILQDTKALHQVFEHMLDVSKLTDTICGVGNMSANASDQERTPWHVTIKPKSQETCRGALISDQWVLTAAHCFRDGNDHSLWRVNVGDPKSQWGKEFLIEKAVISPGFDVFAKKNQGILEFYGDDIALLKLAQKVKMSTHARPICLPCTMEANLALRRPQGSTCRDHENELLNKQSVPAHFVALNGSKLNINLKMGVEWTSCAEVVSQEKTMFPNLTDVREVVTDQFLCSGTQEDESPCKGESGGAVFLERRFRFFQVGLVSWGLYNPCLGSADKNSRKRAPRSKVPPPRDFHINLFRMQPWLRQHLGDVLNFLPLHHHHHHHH

B1: RF16-214 (antibody, V domains shown)
VH: EVQLLESGGGLVQPGGSLRLSCAASGFTFSWYQMMWVRQAPGKGLEWVSRIYPSGGGTAYADSVKGRFTISRDNSKNTLYLQMNSLRAEDTAVYYCARDAGYGDNWGQGTLVTVSS
VL: QSALTQPPSVSVSPGQTASITCSGDKLGEKYASWYQQKAGQSPVMVIYQDRKRPSGIPERFSGSNSGNTATLTISGTQAMDEADYYCQAWDTRAVVFGGGTKLTVLG
Regarding B1, the Fold diff is 1 fold in experiment [1], 1 fold in experiment [2], 1 fold in experiment [3] and 2 fold in experiment [4].
